Laboratory results published in patent JP2007175055A (dated 2007).

B1: soluble recombinant HIV gp120 (baculovirus) (ligand)
chain: not shown
notes: also called r-gp120; HIV r-gp120
B2: mouse monoclonal antibody 5A8 (antibody, V domains shown)
VH: EVKLQESGPELVKPGASVKMSCKASGYTFTSYVIHWVRQKPGQGLDWIGYINPYNDGTDYDEKFKGKATLTSDKSSSTAYMELSSLTSEDSAVYYCAREKDNYATGAWFAYWGQGTTVTVSS
VL: DIVMTQSPSSLAVSVGEKVTMICKSSQSLLYSTNQKNYLAWYQQKPGQSPKLLIYWASTRESGVPDRFTGSGSGTDFTLTISSVKAEDLAVYYCQQYYSYRTFGGGTKLEIK
notes: also called 5A8-2F6; hybridoma ATCC HB 10881 (IVI-10257)

Assays:
[1] = target: T1, recombinant soluble human CD4 (AA1-AA375, V1-V4) (human, UniProt P01730 26-400); assay: affinity column of human rsCD4 on Affi-Gel 10
T1 construct: range 1-375; also called rsCD4

[2] = target: T2, human CD4 on the cell surface (human, UniProt P01730 26-458); assay: FACS: H9 cells pre-incubated with 10 ug r-gp120; competitors Leu3A and OKT4A
T2 construct: whole, on cells; also called cell surface CD4; CD4+ cells

[3] = target: T3, rhesus monkey CD4 on circulating and lymph node CD4+ cells (rhesus monkey, UniProt P16003 26-458); assay: FACS of rhesus monkey blood cells, indirect staining
T3 construct: whole, on cells; also called アカゲザルCD4+細胞

[4] = target: T4, human CD4 V1 polypeptide (AA1-AA113 and/or AA1-AA111) (human, UniProt P01730 26-138); assay: RIA: CD4-V1 competing with 125I-rsCD4 for immobilised antibody
T4 construct: range 1-113; also called CD4 VI

[5] = target: human CD4 V1V2 polypeptide (AA1-AA180) (human, UniProt P01730 26-205); assay: RIA: CD4-V1V2 (5 ug/ml) competing with 125I-rsCD4 for immobilised antibody

T3 sequence (P16003 26-458): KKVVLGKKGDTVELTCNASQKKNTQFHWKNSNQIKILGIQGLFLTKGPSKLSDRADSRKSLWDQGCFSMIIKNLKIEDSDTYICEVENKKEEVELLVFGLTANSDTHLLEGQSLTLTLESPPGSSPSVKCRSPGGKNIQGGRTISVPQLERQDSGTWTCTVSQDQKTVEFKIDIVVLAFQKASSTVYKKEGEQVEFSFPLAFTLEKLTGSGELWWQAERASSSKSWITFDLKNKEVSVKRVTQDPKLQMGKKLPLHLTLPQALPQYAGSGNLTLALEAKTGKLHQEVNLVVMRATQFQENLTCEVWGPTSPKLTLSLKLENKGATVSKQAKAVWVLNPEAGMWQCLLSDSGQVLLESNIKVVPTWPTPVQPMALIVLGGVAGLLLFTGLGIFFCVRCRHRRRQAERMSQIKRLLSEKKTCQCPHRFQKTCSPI

Row | Binder | binding result [1] | binding result [2] | binding result [3] | binding result [4] | binding result [5]
1 | B1 | binds | binds | – | – | –
2 | B2 | – | – | binds | no binding (tested: 5μg/ml) | binds
